Measurements published in PMC6290019 (2018).
Substitutions are numbered along the chain they refer to.

Legend:
[1] = target: colE of designed pair 5 (cognate colE of Im^des5); assay: SPR; two-state reaction fit
[2] = target: colE of designed pair 5 (cognate colE of Im^des5); assay: SPR; two-state reaction fit, koff1
[3] = target: colE of designed pair 5 (cognate colE of Im^des5); assay: SPR; two-state reaction fit, koff2
colE^des2 = assay: SPR
colE^des1 = assay: SPR
Im^des7 [4] = target: T1, Im^des7; assay: SPR; two-state reaction fit, koff1
T1 chain: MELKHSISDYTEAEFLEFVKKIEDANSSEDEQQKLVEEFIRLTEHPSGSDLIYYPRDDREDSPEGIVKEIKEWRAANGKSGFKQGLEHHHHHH

Im^des7 [5] = target: T1, Im^des7; assay: SPR; two-state reaction fit, koff2
Im^des3 = target: T2, Im^des3; assay: SPR
T2 chain: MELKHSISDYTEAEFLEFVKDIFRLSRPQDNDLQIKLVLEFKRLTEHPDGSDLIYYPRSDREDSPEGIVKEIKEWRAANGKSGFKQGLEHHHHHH

Im^wt2 [6] = target: T3, Im^wt2 (Escherichia coli, UniProt P04482 1-86); assay: SPR
T3 chain: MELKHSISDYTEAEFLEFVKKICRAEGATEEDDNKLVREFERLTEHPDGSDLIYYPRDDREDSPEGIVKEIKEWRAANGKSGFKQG

Im^des8 = target: T4, Im^des8; assay: SPR
T4 chain: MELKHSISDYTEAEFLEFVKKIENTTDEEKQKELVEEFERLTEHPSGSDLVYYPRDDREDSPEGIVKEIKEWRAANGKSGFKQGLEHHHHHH

[7] = target: colE of designed pair 6 (cognate colE of Im^des6); assay: SPR; two-state reaction fit
[8] = target: colE of designed pair 6 (cognate colE of Im^des6); assay: SPR; two-state reaction fit, koff1
[9] = target: colE of designed pair 6 (cognate colE of Im^des6); assay: SPR; two-state reaction fit, koff2
colE^des8 = assay: SPR
Im^wt2 [10] = target: T3, Im^wt2; assay: SPR
Im^wt2 [11] = target: T3, Im^wt2; assay: SPR
Im^wt2 [12] = target: T3, Im^wt2; assay: value from previous stopped-flow measurements

B1: Im^des5 (designed binder)
chain: T4 chain with E23C, T26D, D27N, E29N, K30V, K32F, E33K, E36T, S46D, V51I
Kd [1]: 35 nM | koff [2]: 0.023 s⁻¹ | koff [3]: 0.0011 s⁻¹

B2: Im^des2 (designed binder)
chain: T4 chain with E23Y, T25S, E36T, V51I
Kd (colE^des2): 0.32 nM | koff (colE^des2): 0.00041 s⁻¹

B3: Im^des1 (designed binder)
chain: MELKHSISDYTEAEFLEFVKKIYSKGKLDQKLRWVEEFVRLTEHPSGSDLIYYPRDDREDSPEGIVKEIKEWRAANGKSGFKQGLEHHHHHH
koff (colE^des1): 0.00033 s⁻¹

B4: colE^des7 (designed binder)
chain: MESKRNKPGKATGKGKPVGDKWLDDAGKDSGAPIPDRIADKLRDKEFKNFDDFRKKFWEEVSKDPDLAKQFKRSNRKRIQQGYAPFAPQKDQVGGRTTFELHHDKPISQDGGVYDMNNIRVTTPKRAIDIHRGK
koff (Im^des7 [4]): 0.014 s⁻¹ | koff (Im^des7 [5]): 0.0014 s⁻¹

B5: colE^des3 (designed binder)
chain: MESKRNKPGKATGKGKPVGDKWLDDAGKDSGAPIPDRIADKLRDKEFKNFDDFRKKFWKEVAKDPDLAKQFSKANQRNIKDGNAPFARESDQVGGRTTYELHHDKPISQDGGVYDMNNIRVTTPKRAIDIHRGK
koff (Im^des3): 0.019 s⁻¹ | Kd (Im^wt2 [6]): > 100000 nM | Kd (Im^des8): > 100000 nM

B6: Im^des6 (designed binder)
chain: MELKHSISDYTEAEFLEFVKKIFSQGRLEETRPLVEEFERLTEHPDGSDLVYYPRDDREDSPEGIVKEIKEWRAANGKSGFKQGLEHHHHHH
Kd [7]: 161 nM | koff [8]: 0.29 s⁻¹ | koff [9]: 0.00026 s⁻¹

B7: Im^des4 (designed binder)
chain: MELKHSISDYTEAEFLEFVKKIDLASSGGGGNELLSRALVEEFERLTEHPDGSDLIYYPRDDREDSPEGIVKEIKEWRAANGKSGFKQGLEHHHHHH
Kd (colE^des8): > 100000 nM

B8: colE^wt2 (His127Ala) (enzyme)
chain: MESKRNKPGKATGKGKPVGDKWLDDAGKDSGAPIPDRIADKLRDKEFKNFDDFRKKFWEEVSKDPDLSKQFKGSNKTNIQKGKAPFARKKDQVGGRERFELHHDKPISQDGGVYDMNNIRVTTPKRAIDIHRGK
koff (Im^wt2 [10]): 0.00016 s⁻¹ | Kd (Im^wt2 [11]): < 0.1 nM | Kd (Im^wt2 [12]): 0.004 pM
